This is an account of results in patent US20230303699A1 (EXELIXIS, published 2023).

Changes are numbered by the printed parent chain.

Assay [1] has as its target T1, PD-L1 on PD-L1 overexpressing CHO-K1 cells (Homo sapiens (Human), UniProt Q9NZQ7 19-290). Description: flow cytometry on PD-L1 CHO-K1 cells. On the procedure: (§1) Cells were harvested at 70-90% confluence on the day of the assay. Cells were collected by centrifugation at 200×g for 5 minutes and media was removed. Cells were resuspended at 2×10⁶ cells per mL in cold PBS. […] 50 μL per well of the antibody dilution was plated in a 96 well V-bottom plate (Costar 3897). 50 μL per well of cell suspension was added. Plates were placed at 4° C. for 45-60 minutes.
(§2) Cells were collected by centrifugation at 400×g for 7 minutes and primary antibody was removed. […] Plates were placed at 4° C. for 30 minutes.
(§3) Cells were collected by centrifugation at 400×g for 7 minutes and secondary antibody was removed. Cells were resuspended in 50 μL per well of PBS and analyzed by flow cytometry. Binding curves were calculated using the mean fluorescence intensity (MFI) of the FITC fluorescence signal on the cells.
A general note: A flow cytometer gives signals particle by particle.

Assay [2] deals with T1, PD-L1 on PD-L1 overexpressing CHO-K1 …. Description: cell-based or functional assay.
Assay [3] deals with T2, human PD-L1-His tag (extracellular domain) (human, UniProt Q9NZQ7 19-238).
T2 construct: Bought from Acro Biosystems; also called Acro Cat. No. PD1H5229; soluble antigen
T2 sequence (Q9NZQ7 19-238): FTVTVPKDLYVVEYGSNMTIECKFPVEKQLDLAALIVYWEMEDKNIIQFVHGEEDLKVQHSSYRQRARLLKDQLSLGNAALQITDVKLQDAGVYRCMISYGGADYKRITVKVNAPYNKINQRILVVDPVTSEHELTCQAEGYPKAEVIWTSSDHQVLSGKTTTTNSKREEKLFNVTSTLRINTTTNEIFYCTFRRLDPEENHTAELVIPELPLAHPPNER
Description: Octet BLI, monovalent; IgG on Fc capture sensor, soluble PD-L1-His. From the text:
The bivalent interaction of binders to the biotinylated human PD-L1 (see Example 1) immobilized on a streptavidin biosensor was monitored using an Octet (Pall ForteBio) instrument. To monitor monovalent interaction, full-length IgG molecule was immobilized to a Fc capture biosensor and its interaction with soluble antigen was monitored using an Octet instrument.
First, the antibodies were immobilized on an Fc capture sensor. In the next association step, the binding interaction of PD-L1 (Acro Cat. No. PD1H5229 (PD-L1-His tag)) to the immobilized IgG was measured. […] Octet kinetic analysis software was used to calculate the kinetic and equilibrium binding constants from the rate of association and dissociation curves. The analysis was performed using global curve fit where kinetic constants were derived simultaneously from all analyte concentration included in the experiment.
(Biolayer interferometry detects binding as a change in optical thickness at a sensor tip.)

The target in the next assay is T3, Mouse PD-L1 (mouse, UniProt Q9EP73 19-238, biotinylated).
T3 construct: Bought, biotinylated and immobilized on a streptavidin sensor; also called mPD-L1; Acro Cat. No. PD1-M5220
T3 sequence (Q9EP73 19-238 limits assumed): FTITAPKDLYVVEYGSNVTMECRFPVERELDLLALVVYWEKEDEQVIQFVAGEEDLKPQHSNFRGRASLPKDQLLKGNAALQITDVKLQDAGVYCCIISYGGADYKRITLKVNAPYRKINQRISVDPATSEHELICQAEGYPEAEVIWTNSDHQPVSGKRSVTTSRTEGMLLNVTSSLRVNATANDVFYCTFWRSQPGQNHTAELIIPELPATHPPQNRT
Description: Octet BLI; biotinylated mouse PD-L1 on streptavidin sensor.

Assay [4] has as its target T1, PD-L1 on PD-L1 overexpressing CHO-K1 …. Description: flow cytometry on PD-L1 overexpressing CHO-K1 cells, AF488 goat anti human IgG Fab secondary, MFI. The procedure:
as §1, §2, §3

Assay [5] shares this target. Briefly: cell-based or functional assay. This is another data set of the same source.

T1 sequence (Q9NZQ7 19-290 limits assumed): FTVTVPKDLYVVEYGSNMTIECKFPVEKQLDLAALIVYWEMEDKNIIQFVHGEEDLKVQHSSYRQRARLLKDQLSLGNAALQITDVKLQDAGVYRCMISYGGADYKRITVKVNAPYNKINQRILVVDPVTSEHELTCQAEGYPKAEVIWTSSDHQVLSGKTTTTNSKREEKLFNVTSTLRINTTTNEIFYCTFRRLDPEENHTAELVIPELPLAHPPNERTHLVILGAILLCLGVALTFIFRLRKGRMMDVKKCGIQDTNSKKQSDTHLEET

B1: antibody designated P22 (antibody, human IgG1, kappa, V domains shown)
VH: EVQLVESGGGLVQPGGSLRLSCAASGFTFSSYYIHWVRQAPGKGLEWVAWITSHGYSTKYADSVKGRFTISADTSKNTAYLQMNSLRAEDTAVYYCARDSVIYGLDYWGQGTLVTAST
VL: DIQMTQSPSSLSASVGDRVTITCRASQSVSSAVAWYQQKPGKAPKLLIYSASSLYSGVPSRFSGSRSGTDFTLTISSLQPEDFATYYCQQYYTSPYTFGQGTKVEIKR
notes: Tested as full length IgG
For the molecule B1, in assay [1], the half-maximal effective concentration (EC50) (commonly the concentration at which the effect is half-maximal) is 0.523 nM. Moreover, the “PD-1/PD-L1 Interaction Blocking Reporter Assay IC50” value in assay [2] was 2.43 nM. In assay [3], the KD (usually the concentration at which binding is half-saturated) was less than 20 nM and binding was characterised by a dissociation constant (Kd) of 17.2 nM. Also, in the assay with Mouse PD-L1, the binding result is on record as “no binding”.

B2: antibody designated P24 (antibody, human IgG1, kappa, V domains shown)
VH: EVQLVESGGGLVQPGGSLRLSCAASGFTFDQYYIHWVRQAPGKGLEWVAEIYPAGSYTYYADSVKGRFTISADTSKNTAYLQMNSLRAEDTAVYYCARGPYSVRYALDYWGQGTLVTAST
VL: B1 VL with Y91V, Y92S, T93Y
notes: Tested as full length IgG
B2 had an EC50 in assay [1] of 1.62 nM. In assay [2], the “PD-1/PD-L1 Interaction Blocking Reporter Assay IC50” value was 4.98 nM. The EC50 (read off the curve) (in general, the midpoint of the concentration-response curve) in assay [4] was roughly 2 nM. Besides, in assay [3], the KD was less than 20 nM and binding was put at a Kd of 17.5 nM. The binding result with Mouse PD-L1 is on record as “no binding”.

B3: antibody designated P31.2 (antibody, human IgG1, kappa, V domains shown)
VH: EVQLVESGGGLVQPGGSLRLSCAASGFTFSSYYIHWVRQAPGKGLEWVATISSGGGFTYYADSVKGRFTISADTSKNTAYLQMNSLRAEDTAVYYCARGYTLTPVLDYWGQGTLVTAST
VL: B1 VL with Y91F, Y92G, T93A, S94E, Y96I
notes: Tested as full length IgG
For B3, in assay [1], the midpoint of the response, the EC50, lay at 0.552 nM. Also, in assay [2], the “PD-1/PD-L1 Interaction Blocking Reporter Assay IC50” value came out at 1.23 nM. The “IC50 (read off the curve)” value in assay [5] is roughly 2 nM. Besides, in assay [3], the KD is less than 20 nM and the Kd (commonly a measure of binding affinity in units of concentration) came out at 13 nM. The binding result in the assay with Mouse PD-L1 is “no binding”.
